The supplement of paper PMC10724198
± gives the standard deviation of the averaged measurements.

Test system: Saccharomyces cerevisiae
Experiment: protein stability index of tFT-peptide fusion (C-terminal peptide) (PSI (0-1 scale)); higher = more stable (slower turnover)
Details: genetic background: cdc53-1; temperature: 37 C
Procedure: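 MPS profiling in S. cerevisiae of the tFT-X12 degron library: putative degron peptides plus stable controls, 12 aa, fused to the C-terminus of a sfGFP-mCherry timer. Cells are FACS-sorted into 8 mCherry/sfGFP bins and deep-sequenced. PSI runs from 0 (unstable) to 1 (stable). Backgrounds are wild type, das1Δ and doa10Δ at 30 °C, and wild type, das1Δ, cdc34-1 and cdc53-1 at 37 °C; 2-3 technical replicates each.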
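Note: PSI is a weighted mean of sequencing reads over stability bins, variants kept only with over 10 reads, mCherry proximal and sfGFP distal, peptide attached via GGGS linker.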

Question: With CREFLQSMLFYC as the sequence, how does the protein stability index read?
Answer: 0.744 ± 0.017

Question: For CSAVYNLHLLYS, which protein stability index is on record?
Answer: 0.745 ± 0.012

Question: How did the protein stability index turn out when CSFPTFRSLLLL was run?
Answer: 0.647 ± 0.014

Question: Which protein stability index does the source give for CSPSCNIVRLVS here?
Answer: 0.723 ± 0.025

Question: How did the protein stability index turn out when CTYSLSVLFVFF was run?
Answer: 0.51 ± 0.067

Question: For CVFFCVLVCFLS, which protein stability index is on record?
Answer: 0.382 ± 0.023

Question: With CVLSWSLFVVVW as the sequence, how does the protein stability index read?
Answer: 0.028 ± 0.0018

Question: With CVVFLWCGGCWV as the sequence, how does the protein stability index read?
Answer: 0.584 ± 0.0059

Question: With CVVLCLFCWCML as the sequence, how does the protein stability index read?
Answer: 0.4266 ± 0.0042

Question: CYCSIGCLIIFS was tested. Which protein stability index did it give?
Answer: 0.374 ± 0.023

Question: DALHPCIIYLTC was tested. Which protein stability index did it give?
Answer: 0.565 ± 0.015

Question: Which protein stability index does the source give for DECQLCNRDWRG here?
Answer: 0.739 ± 0.013

Question: DKKPMKKILLCI was tested. Which protein stability index did it give?
Answer: 0.565 ± 0.068

Question: DRLRSGLSLLLA was tested. Which protein stability index did it give?
Answer: 0.6817 ± 0.0049

Question: With DRQMRCVHIHYL as the sequence, how does the protein stability index read?
Answer: 0.715 ± 0.028

Question: How did the protein stability index turn out when DRYSFYGYVVVL was run?
Answer: 0.632 ± 0.05

Question: With DVCGVRYVLFVL as the sequence, how does the protein stability index read?
Answer: 0.647 ± 0.018

Question: For DVRLVLCEMIKG, which protein stability index is on record?
Answer: 0.6123 ± 0.0027

Question: With DVYIVLFIIKHG as the sequence, how does the protein stability index read?
Answer: 0.395 ± 0.022

Question: How did the protein stability index turn out when EFFTLYDLVRFI was run?
Answer: 0.79 ± 0.05

Question: How did the protein stability index turn out when ELTYVYRTALIA was run?
Answer: 0.157 ± 0.0057

Question: How did the protein stability index turn out when EMSIISVLRVIS was run?
Answer: 0.641 ± 0.017

Question: ERFILVGMFGSW was tested. Which protein stability index did it give?
Answer: 0.717 ± 0.015

Question: How did the protein stability index turn out when ERWSPWIVVFTN was run?
Answer: 0.505 ± 0.012

Question: How did the protein stability index turn out when ESVPLLIVLHLV was run?
Answer: 0.62 ± 0.085

Question: How did the protein stability index turn out when ETVHVISLIAIG was run?
Answer: 0.5059 ± 0.0027

Question: For EWFFCLGLFRFH, which protein stability index is on record?
Answer: 0.6045 ± 0.0057

Question: How did the protein stability index turn out when FASVFCVVTGYV was run?
Answer: 0.611 ± 0.027

Question: FCALWLCFRLMV was tested. Which protein stability index did it give?
Answer: 0.403 ± 0.014

Question: For FCCLVLDLEVSG, which protein stability index is on record?
Answer: 0.548 ± 0.019

Question: For FCLFMFVPLLPL, which protein stability index is on record?
Answer: 0.589 ± 0.013

Question: For FCMLCVVFLGSL, which protein stability index is on record?
Answer: 0.532 ± 0.0092

Question: How did the protein stability index turn out when FCVCLAVTCCGG was run?
Answer: 0.42 ± 0.013

Question: FDWLFFFVNFVV was tested. Which protein stability index did it give?
Answer: 0.511 ± 0.033

Question: Which protein stability index does the source give for FFAFLRFFIFYW here?
Answer: 0.266 ± 0.087

Question: FFALFLPLACFC was tested. Which protein stability index did it give?
Answer: 0.4432 ± 0.004

Question: FFCCFVFVLGFC was tested. Which protein stability index did it give?
Answer: 0.443 ± 0.01

Question: FFCSILLGIILL was tested. Which protein stability index did it give?
Answer: 0.401 ± 0.0091

Question: With FFFCFFIFCFSL as the sequence, how does the protein stability index read?
Answer: 0.409 ± 0.025

Question: FFFFSFFLATFS was tested. Which protein stability index did it give?
Answer: 0.36 ± 0.016

Question: FFGVFIFPVSCR was tested. Which protein stability index did it give?
Answer: 0.226 ± 0.019

Question: With FFGVLFRVSLFF as the sequence, how does the protein stability index read?
Answer: 0.22 ± 0.011

Question: For FFLLLLRPPLVM, which protein stability index is on record?
Answer: 0.363 ± 0.0046

Question: FFRFCFLLLASS was tested. Which protein stability index did it give?
Answer: 0.335 ± 0.01

Question: For FFSRSLGAGVAA, which protein stability index is on record?
Answer: 0.747 ± 0.044

Question: FFVEFFLLCFCS was tested. Which protein stability index did it give?
Answer: 0.498 ± 0.024

Question: How did the protein stability index turn out when FFVSFFFFLWLV was run?
Answer: 0.181 ± 0.024

Question: Which protein stability index does the source give for FGFFDIKLPVVA here?
Answer: 0.51 ± 0.022

Question: Which protein stability index does the source give for FGVECDLCLFCC here?
Answer: 0.6837 ± 0.0031

Question: With FGVVRVSIPVGV as the sequence, how does the protein stability index read?
Answer: 0.203 ± 0.02

Question: FIFCLSCGVWGG was tested. Which protein stability index did it give?
Answer: 0.583 ± 0.027

Question: Which protein stability index does the source give for FILLFGFSHWVW here?
Answer: 0.523 ± 0.023

Question: For FILLTLVFGCAS, which protein stability index is on record?
Answer: 0.313 ± 0.025

Question: Which protein stability index does the source give for FLAFLEPRVCCA here?
Answer: 0.231 ± 0.036

Question: For FLAFSYIRLLFF, which protein stability index is on record?
Answer: 0.463 ± 0.019

Question: With FLCWLSFIPLLS as the sequence, how does the protein stability index read?
Answer: 0.164 ± 0.007

Question: For FLFFCGWVSLFG, which protein stability index is on record?
Answer: 0.4636 ± 0.0024

Question: How did the protein stability index turn out when FLFFMGVGVVLY was run?
Answer: 0.382 ± 0.029

Question: For FLFIFFFFLISF, which protein stability index is on record?
Answer: 0.1806 ± 0.00038

Question: With FLFLFLFPFSLI as the sequence, how does the protein stability index read?
Answer: 0.571 ± 0.0084
